Common to all, as to experiment: ELISA
In data set [1] the target is Spike S1-His (SARS-CoV-2, UniProt P0DTC2 14-685).
Data set [2] has as its target T1, Spike S2 (SARS-CoV-2, UniProt P0DTC2 686-1213).
Data set [3] deals with Nucleocapsid-His (SARS-CoV-2, UniProt P0DTC9 1-419).
For data set [4], the target named is T1, Spike S2. The source holds these as a separate data set.

Read-outs that look alike come from different tables or passages of the source.

B1: N-Ap (structured_DNA)
DNA: GCTGGATGTCACCGGATTGTCGGACATCGGATTGTCTGAGTCATATGACACATCCAGC
On to B1, for which the binding result in data set [1] and in data set [2] was “no binding” throughout.

B2: RBD-Ap-2 (structured_DNA)
DNA: CGCAGCACCCAAGAACAAGGACTGCTTAGGATTGCGATAGGTTCGG
With B2, the binding result in data set [3] and in data set [4] was “no binding” in each case.

B3: RBD-Ap-1 (structured_DNA)
DNA: CAGCACCGACCTTGTGCTTTGGGAGTGCTGGTCCAAGGGCGTTAATGGACA
For the molecule B3, the binding result in data set [4] was “no binding”.

The record behind these values is publication PMC9238363.
